Experiment [1] has as its target T1, glycosylated human PAI-1 (active form) (human, UniProt P05121 24-402, glycosylated). The experiment in a line: cell-based or functional assay.
In experiment [2] the target is T1, glycosylated human PAI-1 (active form). The experiment in a line: cell-based or functional assay. This is another data set of the same source.
In experiment [3] the target is T2, human PAI-1 (human, UniProt P05121 24-402).
T2 construct: also used for endogenous PAI-1 of human plasma, liver lysate and lung fibroblasts; also called hPAI-1; hPAI
In words: Biacore, hybridoma supernatant.

Experiment [4] deals with T3, cynomolgus PAI-1 (cynomolgus monkey (Macaca fascicularis), UniProt P05121 24-402 (human entry)).
T3 construct: produced in-house in E. coli (non-glycosylated); active cyno PAI-1 in the assays; also called cyno PAI-1; cPAI-1
The experiment in a line: Biacore, hybridoma supernatant.

For experiment [5], the target named is T1, glycosylated human PAI-1 (active form). The experiment in a line: Biacore (summary table). Here is the method: (§1) In kinetics measurement, the antibodies were evaluated in reverse at 25° C. In the reverse assay, PAI-1 antibodies were captured to the anti-mouse IgG Fc antibody surface prepared on CM5 chip followed by injecting the serial 2× dilutions of PAI-1 proteins (human or cyno) starting at 40 nM. A high flow rate was chosen at 50 ul/min to avoid mass transportation limitation. Two thousand seconds was allowed for dissociation time to accommodate for the slow off rate of the selected antibodies. The chip was regenerated by glycine-HCl, pH 1.7 buffer after each round of antibody-PAI-1 binding. Kinetics data analysis was performed using Biacore BIAevaluation software. The sensorgrams were double-referenced by subtracting the reference flow cell values and the blank buffer values. The sensorgrams were fitted by using the simulated kinetics 1:1 (Langmuir) model with local Rmax.

Experiment [6] has as its target T2, human PAI-1. The experiment in a line: Biacore reverse assay, mAb captured by anti-mouse IgG Fc, 25 C. Here is the method: as §1
Experiment [7] concerns the target T2, human PAI-1. The experiment in a line: cell-based or functional assay.
Experiment [8] concerns the target T1, glycosylated human PAI-1 (active form). In words: cell-based or functional assay. The source holds these as a separate data set.
For experiment [9] the target is unchanged. In words: SPR Biacore 2000, mAb captured by anti-Fc, single-cycle kinetics, 1:1 model. The method, then:
First, the surface of a Sensor Chip CM5 (GE Healthcare, Uppsala, Sweden) was prepared using routine amine coupling for the capture of the mouse and human anti-Fc (Anti-human IgG (Fc) antibody & Anti-mouse IgG antibody kits, GE Healthcare). All monoclonal antibodies (mAbs) were diluted to 5 nM using HBS-EP running buffer. Each purified mAb was captured for three minutes on a different flow cell surface. Human PAI-1 was injected at various concentrations (2.5, 5, 10, 20 and 40 nM) with short dissociation times in between and a long dissociation time at the end (contact time: 120 seconds, short dissociation: 90 seconds; long dissociation: 1800 seconds, flow rate: 50 μl/min). The chip was regenerated by glycine-HCl, pH 1.7 buffer after each round of antibody-PAI-1 binding. Kinetics data analysis was performed using Biacore BIAevaluation software. The sensorgrams were double-referenced by subtracting the reference flow cell values and the blank buffer values. The sensorgrams were fitted by using the simulated kinetics 1:1 (Langmuir) model with local Rmax. (see FIG. 19).

Experiment [10] concerns the target T2, human PAI-1. In words: cell-based or functional assay. This is another data set of the same source.
For experiment [11], the target named is T2, human PAI-1. In words: cell-based or functional assay. This is another data set of the same source.
For experiment [12], the target named is T4, cyno PAI-1 captured on immobilized human vitronectin (cynomolgus monkey; human, UniProt P04004 20-478, limits assumed).
T4 construct: non-covalent complex formed on the chip; also called cPAI-1/Vn
In words: Biacore, cPAI-1 on vitronectin chip, two state reaction model.

The target of experiment [13] is T5, human PAI-1 captured on immobilized human vitronectin (human, UniProt P04004 20-478).
T5 construct: non-covalent complex formed on the chip or plate; also called PAI-1/Vn complex; Vn captured hPAI-1
In words: Biacore, hPAI-1 on vitronectin chip, two state reaction model.

Experiment [14] addresses T4, cyno PAI-1 captured on immobilized …. The experiment in a line: Biacore, cPAI-1 on vitronectin chip, two state reaction model (ka1).
The target is the same in experiment [15]. In words: Biacore, cPAI-1 on vitronectin chip, two state reaction model (kd1).
In experiment [16] the target is T5, human PAI-1 captured on immobilized …. In words: Biacore, hPAI-1 on vitronectin chip, two state reaction model (ka1).
Experiment [17] has the same target. In words: Biacore, hPAI-1 on vitronectin chip, two state reaction model (kd1).

T5 sequence (chain, as listed by the source limits assumed, chain 1 of 2): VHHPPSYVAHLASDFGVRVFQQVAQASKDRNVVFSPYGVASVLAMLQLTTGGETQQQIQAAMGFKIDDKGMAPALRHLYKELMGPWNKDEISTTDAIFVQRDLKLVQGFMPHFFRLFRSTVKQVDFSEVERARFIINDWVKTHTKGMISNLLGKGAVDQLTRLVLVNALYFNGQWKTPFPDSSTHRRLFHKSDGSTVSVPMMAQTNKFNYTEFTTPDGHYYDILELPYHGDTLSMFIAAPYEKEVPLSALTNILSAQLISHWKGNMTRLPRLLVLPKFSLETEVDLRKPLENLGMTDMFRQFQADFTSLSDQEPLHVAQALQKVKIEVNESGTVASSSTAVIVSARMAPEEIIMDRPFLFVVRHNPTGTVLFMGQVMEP
T5 sequence (P04004 20-478 limits assumed, chain 2 of 2): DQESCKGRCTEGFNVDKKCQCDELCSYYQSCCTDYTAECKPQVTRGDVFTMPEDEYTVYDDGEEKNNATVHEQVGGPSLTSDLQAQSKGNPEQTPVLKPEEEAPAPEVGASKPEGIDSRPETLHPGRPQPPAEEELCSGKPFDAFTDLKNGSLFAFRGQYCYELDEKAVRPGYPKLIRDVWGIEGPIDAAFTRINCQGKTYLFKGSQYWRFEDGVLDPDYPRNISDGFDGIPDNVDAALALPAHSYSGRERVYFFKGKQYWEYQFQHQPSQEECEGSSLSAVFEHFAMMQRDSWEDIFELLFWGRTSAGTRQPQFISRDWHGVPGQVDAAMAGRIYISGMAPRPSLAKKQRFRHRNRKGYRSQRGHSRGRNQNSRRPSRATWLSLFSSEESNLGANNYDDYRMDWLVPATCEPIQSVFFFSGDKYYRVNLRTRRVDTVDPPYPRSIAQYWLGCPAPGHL
T4 sequence (chain, as listed by the source limits assumed, chain 1 of 2): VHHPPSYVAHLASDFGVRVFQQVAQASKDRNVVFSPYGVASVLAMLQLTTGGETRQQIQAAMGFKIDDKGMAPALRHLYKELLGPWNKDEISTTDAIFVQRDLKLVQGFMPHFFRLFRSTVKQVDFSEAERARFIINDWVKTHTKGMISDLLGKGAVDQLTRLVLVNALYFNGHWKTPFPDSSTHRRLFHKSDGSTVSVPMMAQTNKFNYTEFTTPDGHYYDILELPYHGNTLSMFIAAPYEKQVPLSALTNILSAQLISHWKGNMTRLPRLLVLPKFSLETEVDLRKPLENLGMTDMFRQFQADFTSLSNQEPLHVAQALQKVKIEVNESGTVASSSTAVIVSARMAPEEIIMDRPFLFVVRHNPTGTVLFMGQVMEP
T4 sequence (P04004 20-478 limits assumed, chain 2 of 2): as the sequence (P04004 20-478 limits assumed, chain 2 of 2) above

B1: A71 (antibody, mouse IgG1, V domains shown)
VH: QVQLQQSGAELMKPGASVKISCKATGFTFSTYWIEWIKQRPGHGLDWIGEILPGSGNTNYNEKFKGKATFTADTSSNTVYMQLSSLTSEDSAVYYCARGGLYYNLDSWGQGTTLTVSS
VL: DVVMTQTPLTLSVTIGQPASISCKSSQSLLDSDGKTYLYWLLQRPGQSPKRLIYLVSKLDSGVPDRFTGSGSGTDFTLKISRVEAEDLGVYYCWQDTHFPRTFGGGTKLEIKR
notes: mouse IgG1/kappa; also called mA71; A71 (IgG1/k)
For the molecule B1, in experiment [1], the “plasmin generation, hepatic stellate cells, IC50abs” value (shortened to “plasmin generation … IC50abs”) was 8.61 nM and the “plasmin generation, hepatic stellate cells, Imax” value (“plasmin generation … Imax” below) stood at 90%. Further, in [2], the “Chromogenic Assays” value is approximately 4 nM and the “Plasmin Generation” value came out at 8.61 nM. The molecule also gave a koff in [3] not above 0.0001 s⁻¹. In addition, in experiment [4], the binding result is “binds”.

B2: A105 (antibody, mouse IgG1, V domains shown)
VH: QVQLQQSGAELMKPGASVKISCKATGFTFSIYWIEWVKQRPGLGLEWIGEILPGSGSTNYNEKFKGKATFTADTSSNTAFMQLSSLTSEDSAVYYCARGGLYYDLDYWGQGTILTVSS
VL: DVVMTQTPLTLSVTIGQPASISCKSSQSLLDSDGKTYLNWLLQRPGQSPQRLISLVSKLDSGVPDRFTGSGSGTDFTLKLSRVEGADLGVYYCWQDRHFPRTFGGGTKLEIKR
notes: mouse IgG1/kappa; also called mA105; A105 (IgG1/k)
Regarding B2, in experiment [1], the “plasmin generation … IC50abs” value is 27 nM and the “plasmin generation … Imax” value stood at 88%. For the same molecule, in [2], the “Chromogenic Assays” value worked out at 7 nM and the “Plasmin Generation” value turned out to be 27 nM. In addition, in [5], the Kd was found to be 0.042 nM. Moreover, the koff in experiment [3] is not above 0.0001 s⁻¹. Moreover, in [4], the binding result is on record as “binds”. Moreover, in [6], the affinity, expressed as Kd, was 0.0423 nM and the off-rate constant (koff) was 0.000164 s⁻¹.

B3: APGv2 (antibody, V domains shown)
VH: QVQLVQSGSELKKPGASVKVSCKASGYSFTDYNMNWVRQAPGQGLEWIGIIHPNSGTTTYNQKFKGRAVLSVDQSVSTAYLQISSLKAEDTAVYYCARSKLRFFDYWGQGTLVTVSS
VL: DIQLTQSPSSLSASVGDRVTITCKASQDIYSYLSWFQQKPGKAPKTLIYRANRLIDGVPSRFSGSGSGQDYTFTISSLQPEDIATYYCLQYDEFPFTFGQGTKLEIK
notes: humanized APG; captured by anti-human IgG (Fc); also called APG variant 2
Take B3: in experiment [7], the “PAI-1 activity in human plasma (uPA-PAI-1 complex ELISA), IC50abs” value (shortened to “PAI-1 activity in human plasma … IC50abs”) is 0.962 nM and the “PAI-1 activity in human plasma (uPA-PAI-1 complex ELISA), Imax” value (“PAI-1 activity in human plasma … Imax” below) stood at 94.5%. Also, in experiment [8], the “human plasma clot lysis, IC50” value came to 2.08 nM and the “human plasma clot lysis, Imax @ 100 nM” value is 114%. In addition, in experiment [9], the Kd came to 0.0408 nM and the off-rate (koff) came out at 0.000269 s⁻¹.

B4: APGv4 (antibody, V domains shown)
VH: QVQLVQSGAEVKKPGASVKVSCKASGYSFTDYNMNWVRQAPGQGLEWIGIIHPNSGTTTYNQKFKGRATLTVDQSTSTAYMELSSLRSEDTAVYYCARSKLRFFDYWGQGTLVTVSS
VL: DIQLTQSPSSLSASVGDRVTITCKASQDIYSYLSWFQQKPGKAPKTLIYRANRLIDGVPSRFSGSGSGQDYTFTISSLQPEDIATYYCLQYDEFPFTFGQGTKLEIK
notes: humanized APG; captured by anti-human IgG (Fc); also called APG variant 4
With B4, in experiment [7], the “PAI-1 activity in human plasma … IC50abs” value is 1.28 nM and the “PAI-1 activity in human plasma … Imax” value was found to be 94.4%. In [8], the “human plasma clot lysis, IC50” value was 2.82 nM and the “human plasma clot lysis, Imax @ 100 nM” value amounted to 116%. In addition, in experiment [9], the affinity, expressed as Kd, was 0.038 nM and the dissociation rate constant (koff) is 0.000359 s⁻¹.

B5: E16 (antibody, mouse IgG1, V domains shown)
VH: EVKLVESGGGLVKPGGSLKLSCAASGFTFSNYGMSWVRQTPEKGLGWVASLRTGGNTYYSDSVKGRFTISRDNDRNILYLQMSSLTSEDTAVYYCARGLRHWGYFDVWGAGTTVTVSS
VL: DIVMTQSHKFMSTSVGDRVNITCKASQDVSTAVGWYQQEPGQSPKLLIYSASNRHTGVPDRFTGSGSGTDFTFTISSVQAEDLAVYYCQQHYSSPWTFGGGTKLEIK
notes: mouse IgG1; also called mE16; E16 (IgG1)
On to B5, for which, in [1], the “plasmin generation … IC50abs” value was found to be 4.74 nM and the “plasmin generation … Imax” value stood at 95%. In addition, in experiment [2], the “Chromogenic Assays” value amounted to 1.1 nM and the “Plasmin Generation” value amounted to 4.74 nM. The “EC50, % neutralization of hPAI-1 (chromogenic assay)” value in experiment [10] was determined as 1.24 nM. This molecule registered a koff in experiment [3] not above 0.0001 s⁻¹.

B6: APG (antibody, V domains shown)
VH: QVKLQESGPELVKPGASVKISCKASGYSFTDYNMNWVKQSKGKSLEWIGIIHPNSGTTTYNQKFKGKATLTVDQSSSTAYLQLNSLTSEDSAVYYCARSKLRFFDYWGQGTTVTVSS
VL: DIKLTQSPSSMYASLGERVTITCKASQDIYSYLSWFQQKPGKSPKTLIYRANRLIDGVPSRFSGSGSGQDYSLTISSLEYEHMGIYYCLQYDEFPFTFGSGTKLEIK
notes: murine anti-PAI-1 antibody of DE2000153251; also called mAPG; mouse APG
On to B6, for which, in experiment [7], the “PAI-1 activity in human plasma … IC50abs” value amounted to 1.81 nM and the “PAI-1 activity in human plasma … Imax” value came out at 89.7%. Further, in [8], the “human plasma clot lysis, IC50” value worked out at 2.34 nM and the “human plasma clot lysis, Imax @ 100 nM” value was 123%. In experiment [9], this molecule registered a Kd of 0.113 nM and a koff of 0.000432 s⁻¹.

B7: A44-hv7 (antibody, V domains shown)
VH: QMTLKESGPTLVKPTQTLSLTCSVSGESMTQGYWNWIRQFPGKALEYMGYITYSGSTYYNPSLKGRITITRQTSKNQYYLTLSSVTTVETATYYCARWHYGSPYYFDYWGQGTTLTVSS
VL: DIKMTQSPSSLSASVGDRVTITCKASQDINSYLSWLQQKPGKSPKTLIYRAQRSVEGVPSRFSGSGSGQDYSLTISSLQPEDLATYYCLQYDEFPPTFGGGTKLEIK
notes: humanized A44, HEK293; constant regions as for A44-hv1; also called LC4 x HC4; variant 7
As for B7, the “Chromogenic Assay IC50” value in experiment [11] was 0.59 nM. Besides, the Kd in [12] is 0.0956 nM; in [13] it was 0.0964 nM. In addition, the kon in experiment [14] stood at 2.5e+06 M⁻¹ s⁻¹; in experiment [16], 4.14e+06 M⁻¹ s⁻¹. For the same molecule, the koff in experiment [15] stood at 0.000239 s⁻¹; in experiment [17], 0.000394 s⁻¹.

B8: E21 (antibody, mouse IgG2b, V domains shown)
VH: EVQLQQSGAELVRSGASVKLSCTASGFNIKDYYMHWVKQRPEQGLEWIGWIDPENGDTEYDPKFQAKATMTADTSSNTAYLQLSSLTSEDTAVYYCMYGNYPYYFDYWGQGTTLTVSS
VL: DIQMTQTTSSLSASLGDRVTISCRASQDISNYLNWYQQKPDGTVKLLIYYTSRLHSGVPSRFSGSGSGTDYSLTISNLEQEDIATYFCQQGNTLPWTFGGGTKLEIK
notes: mouse IgG2b; also called mE21; E21 (IgG2b)
With B8, in experiment [2], the “Chromogenic Assays” value turned out to be 1.3 nM and the “Plasmin Generation” value came out at 216 nM. Moreover, in [10], the “EC50, % neutralization of hPAI-1 (chromogenic assay)” value was 1.08 nM. For the same molecule, the dissociation rate constant (koff) in [3] is not above 0.0001 s⁻¹.
